For experiment [1], the target named is T1, recombinant human CSF-1 (human) (UniProt P09603).
T1 sequence (looked up): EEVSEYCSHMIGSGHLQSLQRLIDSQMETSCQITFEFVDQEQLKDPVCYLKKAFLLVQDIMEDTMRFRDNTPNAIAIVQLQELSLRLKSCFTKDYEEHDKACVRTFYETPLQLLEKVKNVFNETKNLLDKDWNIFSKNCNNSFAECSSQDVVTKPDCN
The experiment is described as follows: cell-based or functional assay.

The target of experiment [2] is T1, recombinant human CSF-1 (human). The experiment is described as follows: cell-based or functional assay. The source holds these as a separate data set.

Like-named read-outs stand apart in the source and are kept apart here.

c-fms-Fc, human c-fms extracellular domain (residues 1-512) with a C-terminal human Fc domain, sequence (P07333 20-512): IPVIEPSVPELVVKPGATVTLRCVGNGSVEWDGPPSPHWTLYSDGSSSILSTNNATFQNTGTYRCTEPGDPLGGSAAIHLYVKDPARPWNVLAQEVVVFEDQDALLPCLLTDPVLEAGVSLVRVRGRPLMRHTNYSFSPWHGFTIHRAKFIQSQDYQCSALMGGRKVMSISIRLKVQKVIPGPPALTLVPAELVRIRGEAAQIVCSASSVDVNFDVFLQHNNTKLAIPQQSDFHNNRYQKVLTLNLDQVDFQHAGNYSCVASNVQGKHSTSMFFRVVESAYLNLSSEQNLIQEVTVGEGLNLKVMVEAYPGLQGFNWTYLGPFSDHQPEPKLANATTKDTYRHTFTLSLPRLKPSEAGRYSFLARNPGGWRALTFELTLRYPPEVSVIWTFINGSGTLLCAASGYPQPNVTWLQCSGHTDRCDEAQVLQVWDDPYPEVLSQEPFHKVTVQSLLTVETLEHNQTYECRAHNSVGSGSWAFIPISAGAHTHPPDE

As for “c-fms-Fc, human c-fms extracellular domain (residues 1-512) with a C-terminal human Fc domain (from UniProt P07333 20-512) (Fc fusion)”, in experiment [1], the AML-5 bioassay IC50 was determined as 0.21 nM, the Cynomolgus bone marrow bioassay IC50 came to 0.617 nM and the Human CD14+ monocytes bioassay IC50 was found to be 0.556 nM. Besides, in experiment [2], the AML-5 bioassay IC50 worked out at 0.034 µg/mL, the Cynomolgus bone marrow bioassay IC50 turned out to be 0.1 µg/mL and the Human CD14+ monocytes bioassay IC50 came to 0.09 µg/mL.

The values are drawn from patent US20090155164A1.
